Laboratory results from US20040106134A1 (Regeneron, published 2004).

Experiments:
human BMP-11 = target: T1, human BMP-11 (human, UniProt O95390 299-407, limits assumed, 35S-labelled); assay: co-immunoprecipitation with anti-myc 9E10 beads, 35S-labelled BMP-11
T1 construct: Provided as 35S-labelled protein expressed in X. laevis oocytes; also called human GDF-11; GDF-11
T1 sequence (looked up): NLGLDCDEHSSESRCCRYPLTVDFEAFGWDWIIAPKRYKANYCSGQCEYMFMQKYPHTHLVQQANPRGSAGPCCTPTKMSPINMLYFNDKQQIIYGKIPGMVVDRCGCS
Protocol: (§1) Human DCR5-myc3 (1 ml of COS7 cell-derived serum-free conditioned media described supra) was co-incubated with human BMP-2 (1 μg/ml), or human BMP-4 (0.5 μg/1 ml) (R&D Systems), or human BMP-5 ([…]) (R&D Systems), or mouse Nodal (also known as mBMP-16; provided as ³⁵S-mouse Nodal expressed in X. laevis oocytes), or human BMP-11 (also known as human GDF-11; provided as ³⁵S-human BMP-11 expressed in X. laevis oocytes), in the absence or in the presence of human noggin protein hNGAB2 (described in published PCT application publication no. WO 99/03996, published Jan. 28, 1999, and incorporated in its entirety herein by reference), 2 to 5 μg/ml. The formation of a stable complex between human DCR5-myc3 and the different BMP family members was determined by immunoprecipitating human DCR5-myc3 and associated proteins using the anti-myc monoclonal antibody (9E10; 1 μg/ml) bound to Protein A Ultralink (Pierce). The binding reaction was carried out in the serum-free conditioned media containing 20 mM Tris pH 7.6, 150 mM NaCl, 0.1% Tween 20 (TBST), and 1 mg/ml bovine serum albumin (BSA). Binding was allowed to proceed for 1 hour at 25° C. in a reaction volume of 1.1 ml, with continuous mixing to keep the Protein A-Ultralink (Pierce) in suspension. […]

mouse Nodal = target: T2, mouse Nodal (mouse, UniProt P43021 245-354, limits assumed, 35S-labelled); assay: co-immunoprecipitation with anti-myc 9E10 beads, 35S-labelled Nodal
T2 construct: Provided as 35S-labelled protein expressed in X. laevis oocytes; also called mBMP-16; 35S-mouse Nodal
T2 sequence (looked up): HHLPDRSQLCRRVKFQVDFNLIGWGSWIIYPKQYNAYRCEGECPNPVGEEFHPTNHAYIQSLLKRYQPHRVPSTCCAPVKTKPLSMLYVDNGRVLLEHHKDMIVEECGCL
Protocol: as §1

human BMP-5 = target: T3, human BMP-5 (human, UniProt P22003 317-454, limits assumed); assay: co-immunoprecipitation with anti-myc 9E10 beads, western blot
T3 construct: Bought from R&D Systems
T3 sequence (looked up): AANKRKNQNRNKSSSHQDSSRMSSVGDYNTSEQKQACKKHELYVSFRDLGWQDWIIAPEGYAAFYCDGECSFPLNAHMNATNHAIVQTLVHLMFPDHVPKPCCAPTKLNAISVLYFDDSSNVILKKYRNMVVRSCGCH
Protocol: as §1

binding result (human BMP-11): no binding
binding result (mouse Nodal): no binding
B1: human DCR5-myc3 (other)
chain: RKNRPAGAIPSPYKDGSSNNSERWQHQIKEVLASSQEALVVTERKYLKSDWCKTQPLRQTVSEEGCRSRTILNRFCYGQCNSFYIPRHVKKEEESFQSCAFCKPQRVTSVLVELECPGLDPPFRLKKIQKVKQCRCMSVNLSDSDKQTGEQKLISEEDLGGEQKLISEEDLGGEQKLISEEDLGP
notes: Used as serum-free conditioned medium of transiently transfected COS7 cells; also called Human DCR5-myc3 protein; hDCR-5
binding result (human BMP-5): no binding (tested: 1 g/ml (so in the source))
